Earlier results, collected in paper PMC3763834.
“And” between values parts separate entries of the source, which are not always exact repeats. Identical values can stand only once.

Molecular target: PKA catalytic subunit (UniProt P17612)

PKA RII subunit (from UniProt P13861)
Kd: 1000 pM and 100 pM
